From US6855515

Molecular target: caspase-9 (UniProt P55211)
Experiment: Ki printed in running text; no assay described

- Ki: 60 nM
Substance: Ac-DEVD-CHO, N-(N-Ac-Asp-Glu-Val)-3-amino-4-oxobutanoic acid (peptide)
